Experimental data from doi:10.1101/2023.05.10.540081v1.

Substrate: O=[N+]([O-])c1ccc(O[C@@H]2O[C@H](CO)[C@@H](O)[C@H](O)[C@H]2O)cc1
Test: purified protein
Conditions: technical triplicates
[1] = biological replicate a of two, low protein yield

Row | Protein | Km [mM] | kcat [s⁻¹] | other results
1 | β-glucosidase B (BglB) (Paenibacillus polymyxa) (protein) MSENTFIFPATFMWGTSTSSYQIEGGTDEGGRTPSIWDTFCQIPGKVIGGDCGDVACDHFHHFKEDVQLMKQLGFLHYRFSVAWPRIMPAAGIINEEGLLFYEHLLDEIELAGLIPMLTLYHWDLPQWIEDEGGWTQRETIQHFKTYASVIMDRFGERINWWNTINEPYCASILGYGTGEHAPGHENWREAFTAAHHILMCHGIASNLHKEKGLTGKIGITLNMEHVDAASERPEDVAAAIRRDGFINRWFAEPLFNGKYPEDMVEWYGTYLNGLDFVQPGDMELIQQPGDFLGINYYTRSIIRSTNDASLLQVEQVHMEEPVTDMGWEIHPESFYKLLTRIEKDFSKGLPILITENGAAMRDELVNGQIEDTGRHGYIEEHLKACHRFIEEGGQLKGYFVWSFLDNFEWAWGYSKRFGIVHINYETQERTPKQSALWFKQMMAKNGF | 4.38 | 6.1433 | –
2 | β-glucosidase B (BglB) (Paenibacillus polymyxa; Y169H) (protein) MSENTFIFPATFMWGTSTSSYQIEGGTDEGGRTPSIWDTFCQIPGKVIGGDCGDVACDHFHHFKEDVQLMKQLGFLHYRFSVAWPRIMPAAGIINEEGLLFYEHLLDEIELAGLIPMLTLYHWDLPQWIEDEGGWTQRETIQHFKTYASVIMDRFGERINWWNTINEPHCASILGYGTGEHAPGHENWREAFTAAHHILMCHGIASNLHKEKGLTGKIGITLNMEHVDAASERPEDVAAAIRRDGFINRWFAEPLFNGKYPEDMVEWYGTYLNGLDFVQPGDMELIQQPGDFLGINYYTRSIIRSTNDASLLQVEQVHMEEPVTDMGWEIHPESFYKLLTRIEKDFSKGLPILITENGAAMRDELVNGQIEDTGRHGYIEEHLKACHRFIEEGGQLKGYFVWSFLDNFEWAWGYSKRFGIVHINYETQERTPKQSALWFKQMMAKNGF | – | – | Km (biological replicate a of two): 22.35 mM; kcat (biological replicate a of two): 9.8983 s⁻¹
3 | β-glucosidase B (BglB) (Paenibacillus polymyxa; M224K) (protein) MSENTFIFPATFMWGTSTSSYQIEGGTDEGGRTPSIWDTFCQIPGKVIGGDCGDVACDHFHHFKEDVQLMKQLGFLHYRFSVAWPRIMPAAGIINEEGLLFYEHLLDEIELAGLIPMLTLYHWDLPQWIEDEGGWTQRETIQHFKTYASVIMDRFGERINWWNTINEPYCASILGYGTGEHAPGHENWREAFTAAHHILMCHGIASNLHKEKGLTGKIGITLNKEHVDAASERPEDVAAAIRRDGFINRWFAEPLFNGKYPEDMVEWYGTYLNGLDFVQPGDMELIQQPGDFLGINYYTRSIIRSTNDASLLQVEQVHMEEPVTDMGWEIHPESFYKLLTRIEKDFSKGLPILITENGAAMRDELVNGQIEDTGRHGYIEEHLKACHRFIEEGGQLKGYFVWSFLDNFEWAWGYSKRFGIVHINYETQERTPKQSALWFKQMMAKNGF | – | – | Km [1]: 7.54 mM; kcat [1]: 1.695 s⁻¹
4 | β-glucosidase B (BglB) (Paenibacillus polymyxa; V314D) (protein) MSENTFIFPATFMWGTSTSSYQIEGGTDEGGRTPSIWDTFCQIPGKVIGGDCGDVACDHFHHFKEDVQLMKQLGFLHYRFSVAWPRIMPAAGIINEEGLLFYEHLLDEIELAGLIPMLTLYHWDLPQWIEDEGGWTQRETIQHFKTYASVIMDRFGERINWWNTINEPYCASILGYGTGEHAPGHENWREAFTAAHHILMCHGIASNLHKEKGLTGKIGITLNMEHVDAASERPEDVAAAIRRDGFINRWFAEPLFNGKYPEDMVEWYGTYLNGLDFVQPGDMELIQQPGDFLGINYYTRSIIRSTNDASLLQDEQVHMEEPVTDMGWEIHPESFYKLLTRIEKDFSKGLPILITENGAAMRDELVNGQIEDTGRHGYIEEHLKACHRFIEEGGQLKGYFVWSFLDNFEWAWGYSKRFGIVHINYETQERTPKQSALWFKQMMAKNGF | 6.84 | 4.9167 | –
